In the test the target is IL-13 receptor (IL-4Rα/IL-13Rα1) on TF-1 cells (human) (UniProt P78552). Nature of the test: cell-based or functional assay.
Sequence of IL-13 receptor (IL-4Rα/IL-13Rα1) on TF-1 cells (human) (P78552 22-427, chain 1 of 2): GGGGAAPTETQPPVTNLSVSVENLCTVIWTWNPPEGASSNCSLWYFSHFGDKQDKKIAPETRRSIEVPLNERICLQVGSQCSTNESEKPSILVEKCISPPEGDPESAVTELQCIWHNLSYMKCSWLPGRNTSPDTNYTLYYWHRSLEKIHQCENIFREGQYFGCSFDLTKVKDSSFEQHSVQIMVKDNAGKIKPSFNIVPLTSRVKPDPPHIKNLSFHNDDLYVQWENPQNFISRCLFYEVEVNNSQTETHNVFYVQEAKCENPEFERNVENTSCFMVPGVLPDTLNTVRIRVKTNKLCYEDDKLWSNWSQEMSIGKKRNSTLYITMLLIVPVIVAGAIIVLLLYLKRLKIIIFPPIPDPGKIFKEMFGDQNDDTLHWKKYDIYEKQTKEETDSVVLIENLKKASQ
Sequence of IL-13 receptor (IL-4Rα/IL-13Rα1) on TF-1 cells (human) (P24394 26-825, chain 2 of 2, further chain): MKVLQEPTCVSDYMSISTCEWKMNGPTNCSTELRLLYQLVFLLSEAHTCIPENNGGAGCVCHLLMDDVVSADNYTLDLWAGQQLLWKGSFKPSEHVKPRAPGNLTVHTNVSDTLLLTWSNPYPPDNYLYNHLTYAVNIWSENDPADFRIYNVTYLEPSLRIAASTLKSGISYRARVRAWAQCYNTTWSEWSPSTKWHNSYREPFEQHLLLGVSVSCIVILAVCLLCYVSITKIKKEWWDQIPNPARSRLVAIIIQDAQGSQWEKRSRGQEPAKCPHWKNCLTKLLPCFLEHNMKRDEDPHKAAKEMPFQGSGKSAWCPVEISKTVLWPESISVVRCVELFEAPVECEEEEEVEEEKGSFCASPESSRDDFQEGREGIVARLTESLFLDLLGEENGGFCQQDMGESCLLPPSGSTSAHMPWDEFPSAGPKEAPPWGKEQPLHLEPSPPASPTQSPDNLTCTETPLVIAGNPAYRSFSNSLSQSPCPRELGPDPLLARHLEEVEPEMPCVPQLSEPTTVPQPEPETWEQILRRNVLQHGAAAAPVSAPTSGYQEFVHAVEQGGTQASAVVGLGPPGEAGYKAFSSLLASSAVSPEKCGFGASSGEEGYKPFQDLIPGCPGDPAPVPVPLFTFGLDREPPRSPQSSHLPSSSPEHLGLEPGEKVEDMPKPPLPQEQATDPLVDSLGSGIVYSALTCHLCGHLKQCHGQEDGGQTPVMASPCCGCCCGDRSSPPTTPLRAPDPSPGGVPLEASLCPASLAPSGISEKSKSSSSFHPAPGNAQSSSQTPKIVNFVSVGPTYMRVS

“IL-13Q111 K104A (from UniProt P35225 35-146) (ligand)” registered a Concentration of IL-13 required for 50% TF-1 cell proliferation (ED50, ave) of 46.2 ng/mL.
In the case of “IL-13Q111 H102A (from UniProt P35225 35-146) (ligand)” it was 5.31 ng/mL.
In the case of “human IL-13 with glutamine at position 111 (IL-13Q111) (from UniProt P35225 35-146) (ligand)” it was 1.26 ng/mL; in that of “IL-13Q111 K97A (from UniProt P35225 35-146) (ligand)”, 1.33 ng/mL; in that of “IL-13Q111 K105A (from UniProt P35225 35-146) (ligand)”, 22.6 ng/mL.
“IL-13Q111 R108A (from UniProt P35225 35-146) (ligand)”: the Concentration of IL-13 required for 50% TF-1 cell proliferation (ED50, ave) was 3.2 ng/mL.
In the case of “wild type human IL-13 with arginine in the 111 position (from UniProt P35225 35-146) (ligand)” it was 1.2 ng/mL; in that of “IL-13Q111 K25A (from UniProt P35225 35-146) (ligand)”, 2.64 ng/mL.

These data come from patent US20110009361A1.
